This note sets out measurements from publication PMC6133441, “Characterization of neutralizing antibodies reacting with the 213-224 amino-acid segment of human galectin-9” (PLoS ONE, 2018).

Changes are numbered by the printed parent chain.

In one test the target is T1, peptide 12 (Homo sapiens, UniProt O00182).
T1 construct: 15-mer of human gal-9, twelfth of 15 overlapping peptides spanning aa 202-230 (gal-9L coordinates) with a shift of one aa; limits worked out from peptide 1 = 202-216; they are counted from the set
T1 chain: IPPMMYPHPAYPMPF
Description: ELISA; competition: Gal-Nab1 (0.06 μg/mL) or Gal-Nab2 (0.3 μg/mL) pre-incubated with each 15-mer peptide (0.0001 to 10 μg/mL), then added to plates coated with gal-9; HRP-conjugated anti-mouse antibodies; percent inhibition. The settings on record: both partners purified.

The target in a further test is T2, peptide 13 (Homo sapiens, UniProt O00182).
T2 construct: 15-mer of human gal-9, thirteenth of 15 overlapping peptides spanning aa 202-230 (gal-9L coordinates) with a shift of one aa; limits worked out from peptide 1 = 202-216; they are counted from the set
T2 chain: PPMMYPHPAYPMPFI
The description is as above. The settings on record: both partners purified.

The target in test [1] is human recombinant galectin-9, short isoform (gal-9S) (Homo sapiens, UniProt O00182-3, strain, biotin in the direct ELISA (sites not given); unlabelled in the cell assays). Description: cell-based or functional assay.
human recombinant galectin-9, short isoform (gal-9S), sequence (O00182 whole entry, looked up, change not shown, canonical isoform): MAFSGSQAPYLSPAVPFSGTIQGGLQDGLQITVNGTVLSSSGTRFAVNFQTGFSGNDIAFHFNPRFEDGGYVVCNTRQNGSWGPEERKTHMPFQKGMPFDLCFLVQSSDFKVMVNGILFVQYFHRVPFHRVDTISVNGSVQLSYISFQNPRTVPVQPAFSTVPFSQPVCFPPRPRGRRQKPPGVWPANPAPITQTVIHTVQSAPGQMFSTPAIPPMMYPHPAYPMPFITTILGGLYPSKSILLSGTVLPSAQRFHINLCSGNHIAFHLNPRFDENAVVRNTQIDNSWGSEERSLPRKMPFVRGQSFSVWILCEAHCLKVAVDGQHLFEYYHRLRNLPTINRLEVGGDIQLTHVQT
For test [2], the target named is T3, CTB oligopeptide containing the amino-acids 208 to 232 of gal-9L (Homo sapiens, biotin at the C-terminus: K(biotin)-OH).
T3 construct: stuffer aa not related to gal-9, designed to increase solubility and accessibility; stuffer aa not related to gal-9; the last lysine carries the biotin; 32-mer; also called CTB-gal-9 peptide; CTB peptide
T3 sequence (chain, as listed by the source): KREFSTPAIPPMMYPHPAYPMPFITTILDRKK
Description: SPR; Biacore T200; biotinylated CTB or scramble oligopeptide on a streptavidin (SA) chip; Gal-Nab1 and Gal-Nab2 as analytes, 0.05 to 3.2 nM, 40 μL/min, 700 s, PBS with albumin 0.1 mg/mL and tween 0.05%; dissociation 800 s; apparent affinities (avidity). Also noted: t1/2: unit not given here. Particulars: both partners purified. In general terms: SPR reads the build-up and loss of mass on a sensor chip optically.

Another test concerns the target T4, human galectin-2 (Homo sapiens, UniProt P05162, biotin (sites not given)).
T4 construct: human galectin-2, recombinant; also called h-Gal 2; source: recombinant
Kind of test: ELISA; direct ELISA: antibodies coated in a 96-well plate; biotinylated galectins at 1 nM, detected by streptavidin-HRP; for gal-9S also 1h at 37°C with or without lactose 20 mM (S1 Fig). Particulars: both partners purified.

A further test concerns the target T5, human galectin-8 (Homo sapiens, UniProt O00214, biotin (sites not given)).
T5 construct: human galectin-8, recombinant; also called h-Gal 8; source: recombinant
The description is as above. The settings on record: both partners purified.

The next test addresses T6, human galectin-1 (Homo sapiens, UniProt P09382, biotin (sites not given)).
T6 construct: human galectin-1, recombinant; also called h-Gal 1; source: recombinant
The test is described as above. Particulars: both partners purified.

The next test has as its target T7, human galectin-10 (Homo sapiens, UniProt Q05315, biotin (sites not given)).
T7 construct: human galectin-10, recombinant; also called h-Gal 10; source: recombinant
Described as above. Particulars: both partners purified.

The next test concerns the target T8, human galectin-4 (Homo sapiens, UniProt P56470, biotin (sites not given)).
T8 construct: human galectin-4, recombinant; also called h-Gal 4; source: recombinant
The test is described as above. The settings on record: both partners purified.

In the next test the target is T9, human galectin-7 (Homo sapiens, UniProt P47929, biotin (sites not given)).
T9 construct: human galectin-7, recombinant; also called h-Gal 7; source: recombinant
T9 sequence (P47929 whole entry): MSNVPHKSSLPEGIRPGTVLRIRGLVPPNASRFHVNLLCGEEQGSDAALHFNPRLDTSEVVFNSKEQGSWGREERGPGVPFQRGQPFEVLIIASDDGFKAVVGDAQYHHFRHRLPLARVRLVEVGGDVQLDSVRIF
The description is as above. The settings on record: both partners purified.

T5 sequence (O00214 whole entry): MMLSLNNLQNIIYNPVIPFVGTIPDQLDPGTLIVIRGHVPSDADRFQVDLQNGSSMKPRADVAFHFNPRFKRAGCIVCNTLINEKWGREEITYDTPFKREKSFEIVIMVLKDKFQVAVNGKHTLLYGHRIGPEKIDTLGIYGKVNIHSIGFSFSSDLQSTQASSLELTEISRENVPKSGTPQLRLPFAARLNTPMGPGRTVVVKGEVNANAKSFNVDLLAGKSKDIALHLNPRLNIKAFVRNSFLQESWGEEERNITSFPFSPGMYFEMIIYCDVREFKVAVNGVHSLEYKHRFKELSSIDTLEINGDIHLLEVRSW
T7 sequence (Q05315 whole entry): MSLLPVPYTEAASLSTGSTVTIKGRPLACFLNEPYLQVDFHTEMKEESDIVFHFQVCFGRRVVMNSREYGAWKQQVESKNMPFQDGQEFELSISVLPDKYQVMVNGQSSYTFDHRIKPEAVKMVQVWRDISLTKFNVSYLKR
T6 sequence (P09382 whole entry): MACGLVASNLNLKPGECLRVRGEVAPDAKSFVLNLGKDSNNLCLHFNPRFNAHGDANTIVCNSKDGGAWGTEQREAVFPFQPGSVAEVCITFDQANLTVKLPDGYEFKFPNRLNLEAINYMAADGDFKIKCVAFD
T4 sequence (P05162 whole entry): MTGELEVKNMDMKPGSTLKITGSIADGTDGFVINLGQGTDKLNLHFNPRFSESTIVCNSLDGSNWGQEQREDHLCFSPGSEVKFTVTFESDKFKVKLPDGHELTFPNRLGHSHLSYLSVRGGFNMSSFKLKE
T8 sequence (P56470 whole entry): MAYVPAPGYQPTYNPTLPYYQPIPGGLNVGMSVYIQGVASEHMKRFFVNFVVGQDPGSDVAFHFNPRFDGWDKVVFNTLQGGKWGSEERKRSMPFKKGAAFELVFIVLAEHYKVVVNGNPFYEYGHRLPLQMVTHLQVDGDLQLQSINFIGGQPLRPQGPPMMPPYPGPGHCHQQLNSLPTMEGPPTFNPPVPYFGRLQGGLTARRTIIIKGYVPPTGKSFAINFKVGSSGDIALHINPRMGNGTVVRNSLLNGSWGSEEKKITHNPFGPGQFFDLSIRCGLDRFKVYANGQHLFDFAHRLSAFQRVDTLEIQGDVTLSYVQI

B1: Gal-Nab1 (antibody, V domains shown)
VH: KVQLQQSGAELVKPGASVKLSCKASGYTFTDYTIHWVKQRSGQGLEWIGWFYPGSHSIKYNEQFKDRATLTADKSSSTVYMELSRLTSEDSAVYFCTRHGGYDGFDYWGQGTTLTVSS
VL: DIVMSQSPSSLAVSVGEKITMSCKSSQSLFYSTNQKNYLAWYQQKPGQSPKLLIYWASTRESGVPDRFTGSGSGTDFTLTISSVKAEDLAVYYCQQYYYFPYTFGGGTKLEIK
notes: heavy chain CDR1; heavy chain CDR2; heavy chain CDR3; mouse IgG1 heavy chain constant region (isotype IgG1, kappa as stated); light chain CDR1; light chain CDR2; light chain CDR3; mouse kappa light chain constant region (isotype IgG1, kappa as stated); Mouse IgG1, kappa; Raised against the C-terminal part of human gal-9 (residues 191 to 355 of gal-9L); also called anti-gal-9 mAb
One may read the koff as a measure of how fast the partners let go of each other. The term kon denotes a measure of how fast the partners come together. With B1, the binding result with peptide 12 is listed as “binds”; with peptide 13, “binds”; with human galectin-2 it was “no binding (tested: 1 nM)”; with human galectin-8 it was “no binding (tested: 1 nM)”; with human galectin-1 it was “no binding (tested: 1 nM)”; in the test with human galectin-10, “no binding (tested: 1 nM)”. Also, the binding result with human galectin-4 and with human galectin-7 was “no binding (tested: 1 nM)” each time. Moreover, the “EC50 of prevention of gal-9-induced apoptotic death (annexin-V+ PI+) of activated primary CD3+ T cells; gal-9S 40 nM, 36 h, antibody 0.3 to 100 nM” value in [1] was 10 nM. For the same molecule, the “EC50 of reduction of gal-9-induced non-lethal PS translocation (annexin-V+ PI-) in activated primary CD3+ T cells; gal-9S 40 nM, 36 h, antibody 0.3 to 100 nM” value in test [1] stood at 50 nM. Also, the Kd in [2] amounted to 0.01 nM. In [2], the off-rate constant (koff) was found to be 2.3e-05 s⁻¹. In addition, the kon in test [2] came out at 2.3e+06 M⁻¹ s⁻¹. In addition, the t1/2 in test [2] amounted to 8.37.

B2: Gal-Nab2 (antibody, V domains shown)
VH: KVQLQQSGAELVKPGASVKLSCKASGYTFTEYTIHWVKQRSGQGLEWIGWFYPGSGSMEYNEKFDKATLTADNSSSTVYMELSRLTSEDSAVYFCERHGGYDGFDYWGQGTTLTVSS
VL: B1 VL with I19V, F30L, T33N, E61G, V91I, Y99S, F100Y, Y102F
notes: heavy chain CDR1; that of Gal-Nab1 has 17); heavy chain CDR3; mouse IgG1 heavy chain constant region (isotype IgG1, kappa as stated); light chain CDR1; light chain CDR2; light chain CDR3; mouse kappa light chain constant region (isotype IgG1, kappa as stated); Mouse IgG1, kappa; Raised against the C-terminal part of human gal-9 (residues 191 to 355 of gal-9L); also called anti-gal-9 mAb
As to B2, the binding result is listed as “binds” in the test with peptide 12; “no binding (tested: 1 nM)” with human galectin-2; “no binding (tested: 1 nM)” with human galectin-8; “no binding (tested: 1 nM)” with human galectin-1; “no binding (tested: 1 nM)” with human galectin-10; “no binding (tested: 1 nM)” with human galectin-4. The binding result with human galectin-7 is given as “no binding (tested: 1 nM)”. Moreover, the “EC50 of prevention of gal-9-induced apoptotic death (annexin-V+ PI+) of activated primary CD3+ T cells; gal-9S 40 nM, 36 h, antibody 0.3 to 100 nM” value in [1] amounted to 25 nM.
